Results reported in publication PMC12095755 (Nature Communications, 2025).

Molecular target: human MDM2 (Homo sapiens, UniProt Q00987)
Test: MDM2 AlphaLISA competition assay
Type: binding
Conditions: up to 50 µM

Sequence of human MDM2 (Q00987 whole entry): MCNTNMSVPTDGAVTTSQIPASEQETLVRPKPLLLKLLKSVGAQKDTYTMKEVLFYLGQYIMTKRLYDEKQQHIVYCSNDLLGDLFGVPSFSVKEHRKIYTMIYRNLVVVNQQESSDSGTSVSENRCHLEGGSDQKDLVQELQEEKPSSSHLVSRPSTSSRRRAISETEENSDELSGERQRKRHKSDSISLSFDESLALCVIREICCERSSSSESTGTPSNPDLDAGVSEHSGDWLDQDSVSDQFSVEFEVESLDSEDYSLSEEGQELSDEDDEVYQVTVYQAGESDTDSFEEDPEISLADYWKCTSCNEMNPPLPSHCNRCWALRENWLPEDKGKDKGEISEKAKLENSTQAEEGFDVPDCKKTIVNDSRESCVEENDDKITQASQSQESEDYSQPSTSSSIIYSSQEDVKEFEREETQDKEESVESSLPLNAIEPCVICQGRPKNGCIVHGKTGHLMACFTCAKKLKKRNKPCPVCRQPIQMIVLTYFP

F-S-D-L-W (FSDLW) [p53 motif]
activity in the AlphaLISA assay: no activity
